In PMC3790753:

Target: stratifin (14-3-3 σ) (UniProt P31947)
Assay: anti-myc IP, anti-stratifin blot
Details: reference: wild-type Pkp-3-myc; sites S285

**Q.** With “plakophilin-3 (from UniProt Q9Y446) Pkp-3-myc S285A” as the substance, how does the “binding against the reference” value read?
**A.** Its value is “lost”.
